Measured values reported in paper PMC7267776.

Target: AcrB (from pET21a-acrBΔHis) (E. coli) (UniProt P31224)
Test: cryo-EM structure; AcrB/DARPin and AcrBZ/DARPin reconstituted in saposin A discs with E. coli lipids, with or without additional 5% cardiolipin; 20 mM Tris-Cl pH 7.5, 150 mM NaCl; 2 mM minocycline (AcrB) or 1 mM chloramphenicol (AcrBZ) added

Substance: AcrB (from pET21a-acrBΔHis) (from UniProt P31224) (natural protein)
- stoichiometry N: 3
